In FireProtDB (doi:10.1016/0022-2836(74)90188-0):

Conditions: Bos taurus, Thermal, DSC, glycine 0.04 M, reversible: yes(>90%)

Cytochrome c wild type, P62894, sequence (P62894 whole entry): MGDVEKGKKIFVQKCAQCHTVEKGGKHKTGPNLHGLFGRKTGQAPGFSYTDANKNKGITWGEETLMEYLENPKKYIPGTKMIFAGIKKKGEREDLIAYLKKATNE

Cytochrome c wild type, P62894
Tm (pH 2.81): 52.5 °C | unfolding enthalpy (calorimetric) (pH 2.81): 60 kcal/mol | Tm (pH 2.92): 54 °C | heat capacity change of unfolding (pH 2.92): 1.43 kcal/mol/K | unfolding enthalpy (calorimetric) (pH 2.92): 65 kcal/mol | Tm (pH 3.05): 59 °C | heat capacity change of unfolding (pH 3.05): 1.48 kcal/mol/K | unfolding enthalpy (calorimetric) (pH 3.05): 70.3 kcal/mol | Tm (pH 3.12): 61 °C | heat capacity change of unfolding (pH 3.12): 1.53 kcal/mol/K | unfolding enthalpy (calorimetric) (pH 3.12): 74.3 kcal/mol | Tm (pH 3.18): 62 °C | heat capacity change of unfolding (pH 3.18): 1.36 kcal/mol/K | unfolding enthalpy (calorimetric) (pH 3.18): 77 kcal/mol | Tm (pH 3.4): 66 °C | heat capacity change of unfolding (pH 3.4): 1.48 kcal/mol/K | unfolding enthalpy (calorimetric) (pH 3.4): 84.6 kcal/mol | Tm (pH 3.75): 70 °C | heat capacity change of unfolding (pH 3.75): 1.7 kcal/mol/K | unfolding enthalpy (calorimetric) (pH 3.75): 93.5 kcal/mol | Tm (pH 3.94): 72 °C | heat capacity change of unfolding (pH 3.94): 1.65 kcal/mol/K | unfolding enthalpy (calorimetric) (pH 3.94): 96.3 kcal/mol | Tm (pH 4.52): 77 °C | heat capacity change of unfolding (pH 4.52): 1.48 kcal/mol/K | unfolding enthalpy (calorimetric) (pH 4.52): 103 kcal/mol | Tm (pH 4.83): 78 °C | heat capacity change of unfolding (pH 4.83): 1.53 kcal/mol/K | unfolding enthalpy (calorimetric) (pH 4.83): 107 kcal/mol
